Data set [1] relates to O=P(O)(O)O[C@H]1[C@H](OP(=O)(O)O)[C@@H](OP(=O)(O)O)[C@H](OP(=O)(O)O)[C@@H](OP(=O)(O)O)[C@H]1OP(=O)(O)O. Nature of the data set: Kinetic parameters of phytase variant with sodium phytate (double reciprocal method). The settings on record: other: L162G, optimal pH 4.5 and temperature 55° C. It is filed as biochemical, Y. kristensenii. The procedure:
(§1) According to embodiment of the present invention, the phytase variant YkAPPA-L162G with amino acid sequence as set forth in SEQ ID NO.3 is obtained by mutation at the 162th site of Leucine into glycine for phytase with amino acid as set forth in SEQ ID NO.1.
(§2) Gene encoding phytase YkAPPA having the nucleotide sequence as set in SEQ ID NO. 2 from Y. kristensenii was performed with site-directed mutagenesis by Overlap PCR to obtain genes encodng the phytase variants YeAPPA-L162G, YeAPPA-L162A, YeAPPA-E230G, YkAPPA-E230A, YkAPPA-E230S, YkAPPA-E230T, YkAPPA-E230D, YkAPPA-E230P, and YkAPPA-E230R, respectively.
(§3) The modified genes encoding the phytase variants were inserted into expression vector pET-22b (+), and transformed into E coli. Strain BL21 (DE3), which were induced by IPTG in 1 mM, cultivated for 5 h at 24° C. to express the phytase, followed by being purified by columns Ni-NTA and DEAE to obtain the mutant protein with the same molecular weight as that of the wild.
(§4) The effect of pepsin on the activity of the purified mutant phytase was determined by detecting the remaining activity after being treated in pH 2 for 2 hours with the different concentrations of pepsin in a mass ratio to phytase ranging from 1/1000 to 1/1. The activity of phytase was detected by ferric molybdenum sulfate blue method by adding 50 ul of phytase solution to 950 ul of sodium phytate substrate in 1.5 mmol/L to react for 30 min at 37° C., followed by adding 1 mL of 10% (m/v) TCA to stop the reaction, and 2 mL of developing color reagent. After developing, OD is measured at 700 nm to calculate the phytase activity.
(§5) The activity of phytase was measured with sodium phytate as substrate in different concentrations of 0.0625 mmol/L, 0.1 mmol/L, 0.125 mmol/L, 0.2 mmol/L, 0.25 mmol/L, 0.5 mmol/L, 1.0 mmol/L and 1.5 mmol/L at the optimal temperature and pH, followed by calculating the values of km and Vmax by double reciprocal method for Michaelis equation, and Kcat according to the theoretical molecular weight. […] And, the catalytic properties including reaction rate, turnover rate and catalytic efficiency of the other phytase variants were similar to those of the wild phytase.

For data set [2] the test system is unchanged. Described as above. It is filed as biochemical, Y. kristensenii. The note with it: other: E230S, optimal pH 4.5 and temperature 55° C. On the procedure: According to embodiment of the present invention, the phytase variant YkAPPA-E230S with amino acid sequence as set forth in SEQ ID NO.7 is obtained by mutation at the 230th site of glutamic acid into serine for phytase with amino acid as set forth in SEQ ID NO.1.
as §2, §3, §4, §5

For data set [3] the test system is unchanged. The description is as above. It is filed as biochemical, Y. kristensenii. The note with it: other: E230P, optimal pH 4.5 and temperature 60° C. The procedure: According to embodiment of the present invention, the phytase variant YkAPPA-E230P with amino acid sequence as set forth in SEQ ID NO.10 is obtained by mutation at the 230th site of glutamic acid into proline for phytase with amino acid as set forth in SEQ ID NO.1.
as §2, §3, §4, §5

The test system is the same in data set [4]. The data set is described as above. The class given is biochemical, Y. kristensenii. The settings on record: other: E230G, optimal pH 4.5 and temperature 55° C. On the procedure:
(§6) According to embodiment of the present invention, the phytase variant YkAPPA-E230G with amino acid sequence as set forth in SEQ ID NO.5 is obtained by mutation at the 230th site of glutamic acid into glycine for phytase with amino acid as set forth in SEQ ID NO.1.
as §2, §3, §4, §5

Data set [5] has the same test system. The description is as above. The class given is biochemical, Y. kristensenii. The note with it: other: E230D, optimal pH 4.5 and temperature 55° C. The procedure: According to embodiment of the present invention, the phytase variant YkAPPA-E230D with amino acid sequence as set forth in SEQ ID NO.9 is obtained by mutation at the 230th site of glutamic acid into aspartic acid for phytase with amino acid as set forth in SEQ ID NO.1.
as §2, §3, §4, §5

Data set [6] shares this test system. Described as above. The class given is biochemical, Y. kristensenii. The note with it: other: E230R, optimal pH 4.0 and temperature 55° C. On the procedure:
According to embodiment of the present invention, the phytase variant YkAPPA-E230R with amino acid sequence as set forth in SEQ ID NO.11 is obtained by mutation at the 230th site of […] for phytase with amino acid as set forth in SEQ ID.
as §2, §3, §4, §5

The test system is the same in data set [7]. Described as above. The settings on record: other: E230T, optimal pH 4.5 and temperature 55° C. It is filed as biochemical, Y. kristensenii. On the procedure:
According to embodiment of the present invention, the phytase variant YkAPPA-E230T with amino acid sequence as set forth in SEQ ID NO.8 is obtained by mutation at the 230th site of glutamic acid into threonine for phytase with amino acid as set forth in SEQ ID NO.1.
as §2, §3, §4, §5

Data set [8] relates to Y. kristensenii phytase YkAPPA variant YkAPPA-L162G, SEQ ID NO.3. Described as above. The class given is biochemical. The note with it: L162G vs wild phytase. The procedure: as §1, §2, §3, §4, §5
The test system of data set [9] is Y. kristensenii phytase YkAPPA variant YkAPPA-E230G, SEQ ID NO.5. The data set is described as above. The class given is biochemical. The settings on record: E230G vs wild phytase. The procedure:
as §6, §2, §3, §4, §5

Data set [10] concerns Y. kristensenii phytase YkAPPA variant YkAPPA-E230A, SEQ ID NO.6. The description is as above. It is filed as biochemical. The note with it: E230A vs wild phytase. On the procedure:
(§7) According to embodiment of the present invention, the phytase variant YkAPPA-E230A with amino acid sequence as set forth in SEQ ID NO.6 is obtained by mutation at the 230th site of glutamic acid into alanine for phytase with amino acid as set forth in SEQ ID NO.1.
as §2, §3, §4, §5

Data set [11] relates to O=P(O)(O)O[C@H]1[C@H](OP(=O)(O)O)[C@@H](OP(=O)(O)O)[C@H](OP(=O)(O)O)[C@@H](OP(=O)(O)O)[C@H]1OP(=O)(O)O. Nature of the data set: Kinetic parameters of phytase with sodium phytate (double reciprocal method). It is filed as biochemical, Y. kristensenii. The note with it: other: wild type, optimal pH 4.5 and temperature 55° C. The procedure:
as §2, §3, §4, §5

The test system is the same in data set [12]. Nature of the data set: Kinetic parameters of phytase variant with sodium phytate (double reciprocal method). It is filed as biochemical, Y. kristensenii. The note with it: other: E230A, optimal pH 4.5 and temperature 55° C. The procedure: as §7, §2, §3, §4, §5

Broadly, the Km is the substrate concentration at which the rate is half of its maximum. As usually defined, the Vmax is the top rate of the reaction or transport when substrate is in excess. What is called kcat is the number of substrate molecules converted per active site and unit of time at saturation. As a reminder, the kcat/Km is the second-order rate constant that governs catalysis at low substrate concentration.

In the case of “Y. kristensenii phytase YkAPPA variant YkAPPA-L162G, SEQ ID NO.3 (Yersinia kristensenii; L162G)”, in [1], the Km came out at 90 µM, the maximum rate (Vmax) amounted to 6320 µmol/min/mg, the kcat is 4840 s⁻¹ and the catalytic efficiency (kcat/Km) was 4.61e+07 M⁻¹ s⁻¹.
Turning to “Y. kristensenii phytase YkAPPA variant YkAPPA-E230S, SEQ ID NO.7 (Yersinia kristensenii; E230S)”, in data set [2], the Km worked out at 90 µM, the maximum rate (Vmax) is 3800 µmol/min/mg, the turnover number (kcat) was 2900 s⁻¹ and the catalytic efficiency (kcat/Km) was 2.93e+07 M⁻¹ s⁻¹.
As to “Y. kristensenii phytase YkAPPA variant YkAPPA-E230P, SEQ ID NO.10 (Yersinia kristensenii; E230P)”, in data set [3], the Michaelis constant (Km) worked out at 80 µM, the maximal velocity (Vmax) is 3180 µmol/min/mg, the turnover number (kcat) amounted to 2430 s⁻¹ and the specificity constant (kcat/Km) was 2.98e+07 M⁻¹ s⁻¹.
In the case of “Y. kristensenii phytase YkAPPA variant YkAPPA-E230G, SEQ ID NO.5 (Yersinia kristensenii; E230G)”, in data set [4], the Michaelis-Menten constant (Km) worked out at 100 µM, the Vmax turned out to be 7100 µmol/min/mg, the catalytic constant (kcat) came to 5430 s⁻¹ and the catalytic efficiency (kcat/Km) amounted to 6.17e+07 M⁻¹ s⁻¹.
Consider “Y. kristensenii phytase YkAPPA variant YkAPPA-E230D, SEQ ID NO.9 (Yersinia kristensenii; E230D)”, for which, in data set [5], the Michaelis constant (Km) is 90 µM, the Vmax came to 3590 µmol/min/mg, the kcat stood at 2740 s⁻¹ and the kcat/Km was determined as 2.91e+07 M⁻¹ s⁻¹.
On to “Y. kristensenii phytase YkAPPA variant YkAPPA-E230R, SEQ ID NO.11 (Yersinia kristensenii; E230R)”, for which, in data set [6], the Km was 110 µM, the maximum rate (Vmax) was found to be 4330 µmol/min/mg, the kcat turned out to be 3310 s⁻¹ and the catalytic efficiency (kcat/Km) was 2.99e+07 M⁻¹ s⁻¹.
With “Y. kristensenii phytase YkAPPA variant YkAPPA-E230T, SEQ ID NO.8 (Yersinia kristensenii; E230T)”, in data set [7], the Michaelis-Menten constant (Km) turned out to be 80 µM, the maximum rate (Vmax) was determined as 3250 µmol/min/mg, the turnover number (kcat) was found to be 2480 s⁻¹ and the kcat/Km was 2.98e+07 M⁻¹ s⁻¹.
In the case of `O=P(O)(O)O[C@H]1[C@H](OP(=O)(O)O)[C@@H](OP(=O)(O)O)[C@H](OP(=O)(O)O)[C@@H](OP(=O)(O)O)[C@H]1OP(=O)(O)O` [sodium phytate], in data set [8], the “Reaction rate Vmax relative to the wild phytase” value was 1.6 to 1.8 times, the “catalytic efficiency relative to the wild phytase” value turned out to be 2.1 times and the “conversion rate Kcat relative to the wild phytase” value lay within 1.6 to 1.8 times. Further, in data set [9], the “Reaction rate Vmax relative to the wild phytase” value came out at 1.9 times, the “catalytic efficiency Kcat/km relative to the wild phytase” value turned out to be 2.1 times and the “conversion rate Kcat relative to the wild phytase” value was found to be 1.9 times. Further, in data set [10], the “Reaction rate Vmax relative to the wild phytase” value was found to be 1.3 times, the “catalytic efficiency relative to the wild phytase” value is 2.1 times and the “conversion rate Kcat relative to the wild phytase” value is 1.3 times.
On to “Yersinia (Y.) kristensenii phytase YkAPPA, wild type, SEQ ID NO.1 (Yersinia kristensenii)”, for which, in data set [11], the Km turned out to be 90 µM, the maximal velocity (Vmax) turned out to be 3550 µmol/min/mg, the kcat stood at 2720 s⁻¹ and the kcat/Km was determined as 2.94e+07 M⁻¹ s⁻¹.
On to “Y. kristensenii phytase YkAPPA variant YkAPPA-E230A, SEQ ID NO.6 (Yersinia kristensenii; E230A)”, for which, in [12], the Km worked out at 90 µM, the Vmax came to 4530 µmol/min/mg, the turnover number (kcat) turned out to be 3470 s⁻¹ and the catalytic efficiency (kcat/Km) stood at 3.77e+07 M⁻¹ s⁻¹.

Source of the values: patent US11028377B2, “Phytase variants YkAPPA having improved pepsin resistance and increased catalytic efficiency” (priority 2017, dated 2021).
